# Data taken from patent US11814435B2, “Therapeutic antibodies and their uses” (PFIZER INC., priority 2015, dated 2023).
# Substitutions are numbered along the chain they refer to.
# T1: BCMA (Homo sapiens, UniProt Q02223)
# T1 sequence (Q02223 1-184): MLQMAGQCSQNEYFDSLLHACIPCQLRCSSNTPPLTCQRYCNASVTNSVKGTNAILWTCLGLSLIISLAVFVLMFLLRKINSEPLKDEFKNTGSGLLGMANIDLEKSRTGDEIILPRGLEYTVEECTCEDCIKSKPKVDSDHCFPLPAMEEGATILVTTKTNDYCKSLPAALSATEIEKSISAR
# B1: 1A4: anti-CD3 antibody cloned from mouse hybridoma, expressed as mouse IgG1 (antibody, V domains shown)
# VH: QVQLQQSGPDLVKPGASVEISCKASGYSFTTYYLHWVRQRPGQGLEWIGWIFPGSDNTKYNEKFKGKATLTADTSSSTAYMQLSSLTSEDSAVYFCARNRDYYFDYWGQGTTVTVSS
# VL: DIVMSQSPSSLAVSAGEKVTMSCKSSQSLLNSRTRKNYLAWYQQKPGQSPKLLIYWASTRASGVPDRFTGSGSGTDFTLTISSVQAEDLAIYYCKQSFILRTFGGGTKLEIK
# modifications: mouse IgG1 constant regions
# B2: 1C10: anti-CD3 antibody cloned from mouse hybridoma, expressed as mouse IgG1 (antibody, V domains shown)
# VH: QVQLQQPGSELVRPGASVILSCKASGYTFTSYWMHWVRQRPGQGLEWIGNIYSGGDTINYDEKFKNKAILTVDTSSSTAYMHLSSLTSEDSAVYYCTRDATSRYFFDYWGQGTTVTVSS
# VL: B1 VL with A61E, S82D, A86P, I91V, K95T
# modifications: mouse IgG1 constant regions
# B3: 2B4: anti-CD3 antibody cloned from mouse hybridoma, expressed as mouse IgG1 (antibody, V domains shown)
# VH: EVKLVESGGGLVQPGGSLRLSCATFGFTFTDYYMTWVRQPPGKALEWVAFIRNRARGYTSDHNASVKGRFTISRDNSQNILYLQMNTLRAEDSATYYCARDRPSYYVLDYWGQGTTVTVSS
# VL: DIVMSQSPPSLAVSVGDKVTMSCTSSQSLFNSRSRKNYLAWYQQKSGQSPKLLISWASTRESGVPDRFTGSGSGTDFTLTISSVQAEDLAVYYCKQSYDLFTFGSGTKLEIK
# modifications: mouse IgG1 constant regions
# B4: 7A3: anti-CD3 antibody cloned from mouse hybridoma, expressed as mouse IgG1 (antibody, V domains shown)
# VH: EVQLQQSGAELVRPGALVKLSCKGSGFNIKDYYIHWVKQRPEQGLEWIGWIDPENGNNKYDPKFQGKASITADTSSNIAYLQLSSLTSEDTAVYYCARNDNYAFDYWGQGTTVTVSS
# VL: B1 VL with M4V, T20I, Q44L, W56S, A61E, A86T, I91V, K95M, I99T
# modifications: mouse IgG1 constant regions
# B5: h2B4: anti-CD3 antibody (antibody, V domains shown)
# VH: EVQLVESGGGLVQPGGSLRLSCAASGFTFSDYYMTWVRQAPGKGLEWVAFIRNRARGYTSDHNASVKGRFTISRDNAKNSLYLQMNSLRAEDTAVYYCARDRPSYYVLDYWGQGTTVTVSS
# VL: DIVMTQSPDSLAVSLGERATINCTSSQSLFNVRSRKNYLAWYQQKPGQPPKLLISWASTRESGVPDRFSGSGSGTDFTLTISSLQAEDVAVYYCKQSYDLFTFGSGTKLEIK
# B6: h2B4-VH-yaps VL_TK: anti-CD3 antibody (antibody, V domains shown)
# VH: B5 VH with H62Y, N63A, A64P
# VL: B5 VL with T24K
# What was measured:
# [1] = system: Molp8 LucGFP orthotopic myeloma; assay: Anti-BCMA/CD3 bispecific in combination with standard of care in orthotopic Molp8 tumor model; type: in vivo, NSG mice; conditions: FIG. 14; bispecific 0.3 mg/kg; bortezomib 1 mg/kg i.p.; lenalidomide 50 mg/kg oral gavage
# Protocol: In vivo efficacy study of BCMA bispecifics was performed with Molp8, expressing luciferase and GFP, orthotopic model. Two million Molp8 LucGFP cells were injected intravenously through the tail vein into 6-8 weeks old female NSG animals. Intraperitoneal injection of D-luciferin (Regis Technologies, Morton Grove, Ill.) (200 uL per animal at 15 mg/mL), followed by anesthesia with isofluorane and subsequent whole body bioluminescence imaging (BLI) enabled monitoring of tumor burden. Bioluminescent signals emitted by the interaction between luciferase expressed by the tumor cells and luciferin were captured by imaging using an IVIS Spectrum CT (Perkin Elmer, MA) and quantified as total flux (photons/sec) using Living Image 4.4 (Caliper Life Sciences, Alameda, Calif.). The animals were injected through bolus tail vein on day 7 with 20 million expanded T cells as described in Example 18. Two days post T cell injection, mice were imaged and randomized into five groups of seven mice with an average of 17E6 total flux/group: 1) Combo_Rd4_0.6 nM_C29, 0.3 mg/kg, 2) Combo_Rd4_0.6 nM_C29, 0.3 mg/kg and 1 mg/kg bortezomib, 3) Combo_Rd4_0.6 nM_C29, 0.3 mg/kg and 50 mg/kg lenalidomide, 4) 1 mg/kg bortezomib and 50 mg/kg lenalidomide and 5) vehicle. […]
# [2] = system: OPM2 cells; assay: Anti-BCMA/CD3 bispecific with lenalidomide, carfilzomib or doxorubicin, T cell killing of OPM2 (flow cytometry live cells); type: cell-based; conditions: FIGS. 15A-15C; 1.56 nM carfilzomib, 195 nM lenalidomide, 6.25 nM doxorubicin; three days
# Protocol: OPM2 and CD3+ T cells were first incubated with the standard of care for two hours at 37°. 1.56 nM carfilzomib and 6.25 nM doxorubicin were diluted in PBS containing 0.02% DMSO. Lenalidomide was diluted in PBS containing 0.1% DMSO at 195 nM. Cells were treated with 10-fold serially diluted bispecific antibody.
# [3] = biological target: T1, BCMA; conditions: background; read-out: affinity for BCMA; cited from earlier work
# [4] = system: cynomolgus PBMC; assay: PBMC T cell proliferation by 3H-thymidine incorporation; type: cell-based; conditions: FIG. 10A/10B, 2 day cultures
# Protocol: (§1) Human anti-CD3 antibodies were cloned from immunized mouse, expressed as mouse IgG1, and purified by Protein A affinity beads. Human/Cynomolgus peripheral blood mononuclear cells (hu/cyPBMC) were prepared by Ficoll (Density: 1.083 g/mL, GE) density gradient centrifugation from blood filters obtained from local blood banks. Erythrocytes were removed by incubating in LCK buffer (155 mM NH4Cl, 10 mM KHCO3, […]; Gibco) for 3 minutes at room temperature. Cells were centrifuged for 5 min at 600 g. The supernatant containing the lysed erythrocytes was discarded, and the PBMC were washed twice in 50 ml 1×PBS/1% BSA/1 mM EDTA. The pelleted cells were adjusted to 10^7 cells per ml in culture media, X-VIVO-15, serum free media (Lonza,), and the PBMC were seeded as 10^6 (100 ul) per-well to round bottom 96 well tissue culture plates. Selected Abs are 10× serial diluted from 1000 ng to 1 ng per mL for mixing with human PBMC and 5× serial diluted from 5000 ng to 200 ng per mL for mixing with cynomolgus PBMC. For analysis of PBMC T cell proliferation by ^3H-thymidine incorporation, 2 day cultures were performed in triplicate. During the final 16 h of culture ^3H-thymidine ([…]) was added, and incorporation was measured. Cells are harvested and lysed, DNA is captured onto glass-fiber filter. Radioactivity (cpm) as measure for proliferation by counting on a scintillation beta-counter.
# [5] = system: human PBMC; assay: as above; type: cell-based; conditions: FIG. 10A/10B, 2 day cultures
# Protocol: as §1
# [6] = biological target: bsc_hCD3ed (Homo sapiens, UniProt P07766); assay: Biacore kinetics anti-xCD3e ab/bsc_hCD3ed; type: binding; conditions: data fitted from 80 nM-0.64 nM
# Sequence of bsc_hCD3ed (P07766 23-126 limits assumed): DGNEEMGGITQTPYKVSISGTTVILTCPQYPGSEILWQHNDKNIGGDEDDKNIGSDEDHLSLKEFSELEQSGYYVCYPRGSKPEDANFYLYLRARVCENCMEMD
# Sequence of bsc_hCD3ed (P04234 22-105 partner limits assumed): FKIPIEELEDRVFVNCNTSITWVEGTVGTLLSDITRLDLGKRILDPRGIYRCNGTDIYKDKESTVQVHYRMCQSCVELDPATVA
# [7] = biological target: hCD3 (human CD3) (Homo sapiens, UniProt P07766); assay: Kinetics and affinity of hCD3/human IgG interactions by SPR (Bio-Rad Proteon XPR36); type: binding
# Sequence of hCD3 (human CD3) (P07766 23-126 limits assumed): as the sequence (P07766 23-126 limits assumed) above
# Sequence of hCD3 (human CD3) (P04234 22-105 partner limits assumed): as the sequence (P04234 22-105 partner limits assumed) above
# Protocol: All experiments were performed on a Bio-Rad Proteon XPR36 surface Plasmon resonance biosensor (Bio-Rad, Hercules, Calif.). An array of anti-CD3 antibodies was prepared using an amine-coupling method on a Bio-Rad GLC Sensor Chip similar to that described in Abdiche, et al., Anal. Biochem. 411, 139-151 (2011). The analysis temperature for the immobilization was 25° C. and the running buffer was HBS-T+(10 mM HEPES, 150 mM NaCl, 0.05% Tween-20, pH 7.4). Channels were activated in the analyte (horizontal) direction by injecting a mixture of 1 mM ECD and 0.25 mM NHS for 3 minutes at a flow rate of 30 μL/min. IgGs were immobilized on the activated spots by injecting them in the ligand (vertical) direction at 20 μg/mL in 10 mM Acetate pH 4.5 buffer for 1.5 minutes at […]. The activated surfaces were blocked by injecting 1M ethanolamine, pH 8.5 in the analyte direction for 3 minutes at 30 μL/min.
# The analysis temperature for the hCD3 binding analysis was 37° C. or 25° C. in a running buffer of HBS-T+, supplemented with 1 mg/mL BSA. A kinetic titration method was employed for the interaction analysis as described in Abdiche, et al. The hCD3 (human CD3) analyte was injected in the analyte direction using a series of injections from low to high concentration. The concentrations used were 0.08 nM, 0.4 nM, 2 nM, 10 nM and 50 nM (a 5-membered series, with a 5-fold dilution factor and top concentration of 50 nM). The association time for a given analyte dilution was two minutes. Immediately after the 50 nM hCD3 injection, dissociation was monitored for 2 hours. Prior to the hCD3 analyte injections, buffer was injected 5 times using the same association and dissociation times at the hCD3 analyte cycles to prepare a buffer blank sensorgram for double-referencing purposes (double referencing as described in Myszka, J. Mol. Recognit. 12, 279-284 (1999).
# The sensorgrams were double-referenced and fit to a 1:1 Langmuir with mass transport kinetic titration model in BIAevaluation Software version 4.1.1 (GE Lifesciences, Piscataway, N.J.).
# [8] = biological target: cyCD3ed (Macaca fascicularis, UniProt Q95LI5); assay: Kinetics and affinity of cyCD3ed/human IgG interactions by SPR (Bio-Rad Proteon XPR36); type: binding, cynomolgus
# Sequence of cyCD3ed (Q95LI5 22-117 limits assumed): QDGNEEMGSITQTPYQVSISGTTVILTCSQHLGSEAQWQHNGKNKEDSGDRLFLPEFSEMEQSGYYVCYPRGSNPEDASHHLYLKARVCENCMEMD
# Sequence of cyCD3ed (Q95LI8 22-105 partner limits assumed): as the sequence (P04234 22-105 partner limits assumed) above, with I5V, N15K, I20V, S32T, D33N, I34N, T64A, S74N, V83L counted along it
molecule,measurement,setting,value
"CC(C)C[C@H](NC(=O)[C@H](Cc1ccccc1)NC(=O)c1cnccn1)B(O)O [bortezomib, [(1R)-3-methyl-1-[[(2S)-1-oxo-3-phenyl-2-[(pyrazinylcarbonyl)amino]propy-l]amino]butyl]boronic acid]",effect of combining on the efficacy of the anti-BCMA/CD3 bispecific antibody,[1],did not have a negative effect
CC(C)C[C@H](NC(=O)[C@H](CCc1ccccc1)NC(=O)CN1CCOCC1)C(=O)N[C@@H](Cc1ccccc1)C(=O)N[C@@H](CC(C)C)C(=O)[C@@]1(C)CO1 [carfilzomib],effect on the function of Combo_Rd4_0.6 nM_C29-CD3 bispecific antibody on OPM2 cells,[2],do not have a negative effect
COc1cccc2c1C(=O)c1c(O)c3c(c(O)c1C2=O)C[C@@](O)(C(=O)CO)C[C@@H]3O[C@H]1C[C@H](N)[C@H](O)[C@H](C)O1 [doxorubicin],effect on the function of Combo_Rd4_0.6 nM_C29-CD3 bispecific antibody on OPM2 cells,[2],do not have a negative effect
Nc1cccc2c1CN(C1CCC(=O)NC1=O)C2=O (stereo not drawn) [lenalidomide],effect of combining on the efficacy of the anti-BCMA/CD3 bispecific antibody,[1],did not have a negative effect
same,effect on the function of Combo_Rd4_0.6 nM_C29-CD3 bispecific antibody on OPM2 cells,[2],do not have a negative effect
"APRIL: a proliferation-inducing ligand, ligand of BCMA",Kd,[3],16 nM
"BAFF: B-cell activation factor, ligand of BCMA",Kd,[3],1000 nM
B1,Thymidine incorporation,[4],had Thymidine incorporation reading
same,Thymidine incorporation,[5],had Thymidine incorporation reading
B2,Thymidine incorporation,[4],had Thymidine incorporation reading
same,Thymidine incorporation,[5],had Thymidine incorporation reading
same,ka,[6],2.96E+05
same,kd,[6],2.37E−03
B3,Thymidine incorporation,[4],had Thymidine incorporation reading
same,Thymidine incorporation,[5],had Thymidine incorporation reading
same,ka,[6],3.74E+05
same,kd,[6],2.74E−03
B4,Thymidine incorporation,[4],had Thymidine incorporation reading
same,Thymidine incorporation,[5],had Thymidine incorporation reading
B5,ka huCD3ed @25° C.,[7]; 25° C.,370000 M⁻¹ s⁻¹
same,kd huCD3ed @25° C.,[7]; 25° C.,0.002 s⁻¹
same,ka huCD3ed @37° C.,[7],437000 M⁻¹ s⁻¹
same,kd huCD3ed @37° C.,[7],0.01369 s⁻¹
same,ka cyCD3ed @25° C.,[8],390000 M⁻¹ s⁻¹
same,kd cyCD3ed @25° C.,[8],0.0015 s⁻¹
B6,ka huCD3ed @37° C.,[7],250000 M⁻¹ s⁻¹
same,kd huCD3ed @37° C.,[7],0.023 s⁻¹
